Paper PMC4861984, “Deciphering a unique biotin scavenging pathway with redundant genes in the probiotic bacterium Lactococcus lactis” (Scientific Reports, 2016)

Key:
[1] = biological target: T1, BirA_ec (Escherichia coli, UniProt P06709); assay: TLC of biotinoyl-5'-AMP from [alpha-32P]ATP; MALDI-TOF of biotinylated AccB87; type: biochemical; details: 20 uM biotin, 5 uM ATP, 5 mM MgCl2, 100 mM KCl, pH 8, 37 °C; AccB87 acceptor
T1 construct: gene birA

[2] = biological target: T2, BirA1_LL (Lactococcus lactis IL1403, UniProt Q9CEQ6 1-323); assay: EMSA; 100 uM biotin + 100 uM ATP (forms biotinoyl-AMP); 3-12 pmol protein; Roche binding buffer (composition, pH, temperature not stated), 0.2 pmol DIG probe in 15 ul, 100 uM biotin + 100 uM ATP, ~1 h; native PAGE 7% (Methods) or 7.5%; details: protein: recombinant; tags: His6 (pET28a); chain copies: 2; label: digoxigenin; blunt
T2 sequence: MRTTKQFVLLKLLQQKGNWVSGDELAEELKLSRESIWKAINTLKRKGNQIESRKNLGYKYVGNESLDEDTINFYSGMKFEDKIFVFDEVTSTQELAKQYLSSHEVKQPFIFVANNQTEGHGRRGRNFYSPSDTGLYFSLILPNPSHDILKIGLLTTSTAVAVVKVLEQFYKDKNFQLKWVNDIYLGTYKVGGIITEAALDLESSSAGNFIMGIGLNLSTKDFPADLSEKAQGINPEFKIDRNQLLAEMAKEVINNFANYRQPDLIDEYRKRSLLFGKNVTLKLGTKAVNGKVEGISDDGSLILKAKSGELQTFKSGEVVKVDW

[3] = biological target: T3, BirA2_LL (Lactococcus lactis IL1403, UniProt Q9CED9 1-250); assay: EMSA; 100 uM biotin + 100 uM ATP; 3-12 pmol protein; Roche binding buffer (composition, pH, temperature not stated), 0.2 pmol DIG probe in 15 ul, 100 uM biotin + 100 uM ATP, ~1 h; native PAGE 7% (Methods) or 7.5%; details: protein: recombinant; tags: His6 (pET28a); chain copies: 2; label: digoxigenin; blunt
T3 sequence: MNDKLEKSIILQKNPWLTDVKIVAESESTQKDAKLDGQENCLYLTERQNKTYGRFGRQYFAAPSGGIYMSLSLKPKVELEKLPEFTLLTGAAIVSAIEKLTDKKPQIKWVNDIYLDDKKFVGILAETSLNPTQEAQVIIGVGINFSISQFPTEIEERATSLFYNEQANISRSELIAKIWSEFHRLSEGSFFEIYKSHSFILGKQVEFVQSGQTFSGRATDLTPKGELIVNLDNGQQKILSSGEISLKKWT

T1 sequence (P06709 whole entry): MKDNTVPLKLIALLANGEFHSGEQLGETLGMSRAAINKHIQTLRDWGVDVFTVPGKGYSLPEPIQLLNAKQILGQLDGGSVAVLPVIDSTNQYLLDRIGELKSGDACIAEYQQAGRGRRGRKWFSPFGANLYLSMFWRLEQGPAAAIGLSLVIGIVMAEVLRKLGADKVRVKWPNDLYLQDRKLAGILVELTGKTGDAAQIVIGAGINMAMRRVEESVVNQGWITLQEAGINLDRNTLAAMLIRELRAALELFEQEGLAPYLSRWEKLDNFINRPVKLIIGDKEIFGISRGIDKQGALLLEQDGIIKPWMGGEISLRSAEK

O=C(O)CCCC[C@@H]1SC[C@@H]2NC(=O)N[C@@H]21 [biotin]
TLC of biotinoyl-5'-AMP from [alpha-32P]ATP; MALDI-TOF of biotinylated AccB87 [1]: The formation of the biotinylated AccB87 by E. coli BirA

B1: bioY_LL (bioY1 promoter probe) (dsDNA)
DNA 1: CAAATAATAAAATTAACAGTTAACCTAAATTTGATTTTAGGGTTACTGTTTGATATG
DNA 2: CATATCAAACAGTAACCCTAAAATCAAATTTAGGTTAACTGTTAATTTTATTATTTG
binding result [2]: binds | binding result [3]: no binding
